The target in this experiment is Carcinoembryonic antigen (CEA) (human) (UniProt P06731). As to the kind of experiment: cell-based or functional assay.
Sequence of Carcinoembryonic antigen (CEA) (human) (P06731 35-702): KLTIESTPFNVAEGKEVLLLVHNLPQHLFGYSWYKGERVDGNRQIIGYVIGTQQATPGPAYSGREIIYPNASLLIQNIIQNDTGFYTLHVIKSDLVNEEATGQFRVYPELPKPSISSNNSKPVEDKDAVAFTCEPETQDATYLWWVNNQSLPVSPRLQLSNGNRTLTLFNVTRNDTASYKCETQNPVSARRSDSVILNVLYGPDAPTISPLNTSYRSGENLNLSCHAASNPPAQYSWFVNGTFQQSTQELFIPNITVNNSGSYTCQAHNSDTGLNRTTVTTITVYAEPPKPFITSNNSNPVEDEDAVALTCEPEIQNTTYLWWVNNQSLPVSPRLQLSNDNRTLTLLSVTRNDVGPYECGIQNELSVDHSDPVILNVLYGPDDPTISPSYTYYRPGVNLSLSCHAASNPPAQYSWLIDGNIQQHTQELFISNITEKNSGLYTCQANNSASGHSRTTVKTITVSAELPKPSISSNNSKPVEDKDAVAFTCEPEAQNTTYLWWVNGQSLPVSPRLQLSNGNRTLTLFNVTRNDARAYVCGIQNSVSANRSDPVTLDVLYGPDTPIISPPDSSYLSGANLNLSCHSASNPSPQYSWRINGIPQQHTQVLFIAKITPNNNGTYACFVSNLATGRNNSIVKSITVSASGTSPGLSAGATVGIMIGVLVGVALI

Take cibisatamab (bispecific antibody): the Pearson correlation of growth reduction with the fraction of CEAhi cancer cells in each PDO came out at 0.915 r.

The record behind these values is US20220017623A1, “TREATMENT OF CANCER USING A CEA CD3 BISPECIFIC ANTIBODY AND A WNT SIGNALING INHIBITOR” (Hoffmann-La Roche Inc., priority 2019, published 2022).
